Article PMC9896810, “Crk proteins activate the Rap1 guanine nucleotide exchange factor C3G by segregated adaptor-dependent and -independent mechanisms” (Cell Communication and Signaling : CCS, 2023)
Substitutions are numbered along the chain they refer to. Names may count otherwise. No end group written: not given here. fluorescein = N-terminal fluorescein probe

T1: Src-phosphorylated C3G-AAPA (pC3G-AAPA) (human, UniProt Q13905-1 4-1077, phosphotyrosines (phosphorylated in vitro by Src; sites not stated))
T1 chain: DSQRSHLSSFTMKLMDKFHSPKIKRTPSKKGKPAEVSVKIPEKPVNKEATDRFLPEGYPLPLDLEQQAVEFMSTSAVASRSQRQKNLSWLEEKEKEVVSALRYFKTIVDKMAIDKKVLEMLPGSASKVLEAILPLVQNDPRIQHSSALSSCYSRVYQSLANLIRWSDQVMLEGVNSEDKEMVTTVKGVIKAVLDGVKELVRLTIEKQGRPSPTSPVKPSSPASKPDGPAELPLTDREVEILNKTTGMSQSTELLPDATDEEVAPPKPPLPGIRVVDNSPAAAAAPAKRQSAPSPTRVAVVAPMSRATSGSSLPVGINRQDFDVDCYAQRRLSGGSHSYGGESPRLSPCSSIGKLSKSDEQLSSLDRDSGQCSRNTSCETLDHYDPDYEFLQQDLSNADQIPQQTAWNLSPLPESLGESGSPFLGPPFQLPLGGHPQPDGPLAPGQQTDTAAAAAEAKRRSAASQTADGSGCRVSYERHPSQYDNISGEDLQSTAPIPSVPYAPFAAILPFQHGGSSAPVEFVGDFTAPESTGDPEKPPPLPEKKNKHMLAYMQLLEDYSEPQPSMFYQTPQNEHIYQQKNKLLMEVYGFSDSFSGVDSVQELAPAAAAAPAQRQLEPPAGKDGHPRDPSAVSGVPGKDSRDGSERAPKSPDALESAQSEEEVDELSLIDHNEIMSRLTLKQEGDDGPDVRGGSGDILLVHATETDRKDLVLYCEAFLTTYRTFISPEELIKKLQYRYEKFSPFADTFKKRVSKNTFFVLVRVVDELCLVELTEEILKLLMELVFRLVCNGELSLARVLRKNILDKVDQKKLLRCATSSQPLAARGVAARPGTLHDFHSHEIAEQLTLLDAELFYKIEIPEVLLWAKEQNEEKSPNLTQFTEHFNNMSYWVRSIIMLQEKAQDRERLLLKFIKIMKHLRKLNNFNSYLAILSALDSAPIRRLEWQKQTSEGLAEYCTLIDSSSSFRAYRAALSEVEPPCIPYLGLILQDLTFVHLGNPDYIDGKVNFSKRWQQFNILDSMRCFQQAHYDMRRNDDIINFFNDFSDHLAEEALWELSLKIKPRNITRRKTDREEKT

T2: C3G full-length wild type (human, isoform a, residues 4-1077) (human, UniProt Q13905-1 4-1077)
T2 sequence (looked up): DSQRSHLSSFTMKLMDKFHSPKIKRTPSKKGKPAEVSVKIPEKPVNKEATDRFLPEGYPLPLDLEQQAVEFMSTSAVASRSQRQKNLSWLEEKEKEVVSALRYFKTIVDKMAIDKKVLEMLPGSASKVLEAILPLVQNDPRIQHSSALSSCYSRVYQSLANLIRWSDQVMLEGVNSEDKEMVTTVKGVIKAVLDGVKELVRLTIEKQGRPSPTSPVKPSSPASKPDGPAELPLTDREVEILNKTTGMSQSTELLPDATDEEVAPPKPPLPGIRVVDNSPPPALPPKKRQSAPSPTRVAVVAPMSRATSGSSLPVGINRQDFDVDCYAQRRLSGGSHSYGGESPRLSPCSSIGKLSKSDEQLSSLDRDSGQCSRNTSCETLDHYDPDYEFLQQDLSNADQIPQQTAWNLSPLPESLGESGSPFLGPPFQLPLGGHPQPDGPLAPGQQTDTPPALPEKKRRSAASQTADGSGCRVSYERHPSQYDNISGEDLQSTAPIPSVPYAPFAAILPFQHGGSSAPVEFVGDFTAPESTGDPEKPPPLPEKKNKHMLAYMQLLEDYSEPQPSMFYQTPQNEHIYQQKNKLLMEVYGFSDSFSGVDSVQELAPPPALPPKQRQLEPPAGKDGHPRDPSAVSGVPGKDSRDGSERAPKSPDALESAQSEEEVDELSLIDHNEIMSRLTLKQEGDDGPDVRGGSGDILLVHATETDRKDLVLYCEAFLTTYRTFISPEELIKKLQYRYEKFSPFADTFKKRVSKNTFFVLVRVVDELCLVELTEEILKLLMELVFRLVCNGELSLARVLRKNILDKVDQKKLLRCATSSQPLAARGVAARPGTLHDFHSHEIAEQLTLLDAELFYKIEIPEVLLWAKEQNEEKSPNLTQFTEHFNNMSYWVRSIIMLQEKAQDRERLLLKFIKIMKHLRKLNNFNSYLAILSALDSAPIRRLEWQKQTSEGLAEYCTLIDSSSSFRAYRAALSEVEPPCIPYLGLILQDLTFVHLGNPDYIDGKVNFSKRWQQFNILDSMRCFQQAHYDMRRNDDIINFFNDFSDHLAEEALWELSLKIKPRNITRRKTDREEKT

T3: Src-phosphorylated C3G (pC3G), wild type (human, UniProt Q13905-1 4-1077, phosphotyrosines (phosphorylated in vitro by Src; sites not stated))
T3 sequence (looked up): T2 sequence (looked up)

B1: C3G-APAA (natural protein)
chain: T1 chain with A450P, A451P, A453L, A454P, A456K, P537A, P538A, L540A, P541A, K543A
B2: CrkL-SH3N (residues 125-182) (domain or fragment, human, UniProt P46109 125-182, looked up)
chain: LEYVRTLYDFPGNDAEDLPFKKGEILVIIEKPEEQWWSARNKDGRVGMIPVPYVEKLV
notes: human CrkL, SH3N domain, residues 125-182, in pETEV15b; also called SH3N domain of CrkL; isolated SH3N domain; source: E. coli BL21 (DE3), purified (His-tagged, purified in a similar manner as C3G)
B3: C3G P1 peptide (residues 280-293), fluorescein-labeled (peptide, UniProt Q13905-1 280-293, looked up)
peptide: fluorescein-NSPPPALPPKKRQS
notes: Pro-rich motif P1 of human C3G, residues 280-293; source: synthetic peptide (custom synthesized, Thermo Scientific)
B4: CrkL, full-length (human) (natural protein, UniProt P46109 1-303, looked up)
chain: MSSARFDSSDRSAWYMGPVSRQEAQTRLQGQRHGMFLVRDSSTCPGDYVLSVSENSRVSHYIINSLPNRRFKIGDQEFDHLPALLEFYKIHYLDTTTLIEPAPRYPSPPMGSVSAPNLPTAEDNLEYVRTLYDFPGNDAEDLPFKKGEILVIIEKPEEQWWSARNKDGRVGMIPVPYVEKLVRSSPHGKHGNRNSNSYGIPEPAHAYAQPQTTTPLPAVSGSPGAAITPLPSTQNGPVFAKAIQKRVPCAYDKTALALEVGDIVKVTRMNINGQWEGEVNGRKGLFPFTHVKIFDPQNPDENE
notes: Monomer by sedimentation velocity and DLS (theoretical mass 33.7 kDa); Purification 'in a similar manner' as C3G would include TEV cleavage of the tag; also called Crk-like protein; wild type CrkL; source: E. coli BL21 (DE3), purified (His-tagged, purified in a similar manner as C3G)
B5: GST-CrkL R39K (natural protein, human, UniProt P46109 1-303, looked up)
chain: B4 chain with R39K
notes: human CrkL, full-length, R39K; the results print 'R93K alone', the methods and the sentence before print R39K; also called R93K; source: E. coli BL21 (DE3), purified GST fusion

Experiments:
[1] = biological target: B4; test: ITC; single-PRM mutants of C3G in the cell titrated with full-length CrkL or CrkL-SH3N; 25 °C; 1:1 model in SEDPHAT; N is the competent fraction of C3G; settings: both partners purified
[2] = biological target: C3G-AAPA-Y554H (human, UniProt Q13905-1 4-1077, Y554H); test: as above; settings: both partners purified
[3] = biological target: T1, Src-phosphorylated C3G-AAPA (pC3G-AAPA); test: as above; settings: both partners purified
[4] = biological target: T2, C3G full-length wild type (human, …); test: cell-based or functional assay
[5] = biological target: T3, Src-phosphorylated C3G (pC3G), wild type; test: cell-based or functional assay
[6] = biological target: B4; test: fluorescence polarisation; fluorescein peptides at 0.2 µM titrated with CrkL; 20 mM Tris-HCl, 150 mM NaCl, pH 7.5, 0.1 mg/ml BSA; 1:1 model; apparent kd; settings: both partners purified
[7] = biological target: T2, C3G full-length wild type (human, …); test: ITC; C3G in the cell titrated with CrkL; 25 °C; 300 mM NaCl, pH 7.5 (Tris-HCl or Na-phosphate); three titrations fitted one by one, independent-site model (MicroCal Origin); settings: both partners purified
[8] = biological target: T3, Src-phosphorylated C3G (pC3G), wild type; test: cell-based or functional assay; remark: listed apart in the source
[9] = biological target: T2, C3G full-length wild type (human, …); test: AUC; sedimentation velocity of C3G with increasing CrkL; 20 mM Tris-HCl, 300 mM NaCl, pH 7.5, 20 °C, 48,000 rpm; isotherms fitted with three symmetric sites (Gilbert-Jenkins), microscopic kd; settings: both partners purified
[10] = biological target: T3, Src-phosphorylated C3G (pC3G), wild type; test: ITC; full-length C3G or pC3G in the cell titrated with CrkL, CrkL fragments, CrkL-W160S or CrkII; 25 °C; 300 mM NaCl, pH 7.5; parameters in Table S11; settings: both partners purified
[11] = biological target: T2, C3G full-length wild type (human, …); test: ITC; same three titrations of C3G with CrkL, global fit in SEDPHAT, three symmetric binding sites, microscopic kd; settings: both partners purified
[12] = biological target: T3, Src-phosphorylated C3G (pC3G), wild type; test: pull-down; 30 µg GST-CrkL (full-length or SH3N) with 30 µg C3G on glutathione-agarose; 20 mM Tris-HCl, 150 mM NaCl, pH 7.5, 0.01% BSA; 30 min, 4 °C; washes with 0.1% Triton X-100; coomassie or western blot; settings: both partners purified

B1
Kd [1]: ~1 µM

B2
Kd [2]: 0.8 µM
stoichiometry N [2]: ~0.5 molecules of SH3N per molecule of C3G-AAPA-Y554H
stoichiometry N [3]: ~0.1
AC50 of the dose-response activation of the GEF activity of C3G (1 µM) on Rap1b:mant-dGDP [4]: 26.8 µM
kmax of the dose-response activation of the GEF activity of C3G (1 µM) on Rap1b:mant-dGDP [4]: 6300 M⁻¹ s⁻¹
AC50 of the dose-response activation of the GEF activity of pC3G (0.2 µM) on Rap1b:mant-dGDP [5]: 12.8 µM
kmax of the dose-response activation of the GEF activity of pC3G (0.2 µM) on Rap1b:mant-dGDP [5]: 0.0139 s^-1 µM^-1

B3
binding result [6]: binds

B4
Kd [7]: 2.8 to 3.6 µM
stoichiometry N [7]: ~3 molecules of CrkL per molecule of C3G
GEF activity of pC3G (0.2 µM) on Rap1b:mant-dGDP with 5 µM CrkL, fold over pC3G alone [8]: ~9 fold
Kd [9]: 1.4 µM
koff [9]: > 0.001 s⁻¹
Kd [10]: 1.3 µM
AC50 of the dose-response activation of the GEF activity of C3G (1 µM) on Rap1b:mant-dGDP [4]: 22.4 µM
kmax of the dose-response activation of the GEF activity of C3G (1 µM) on Rap1b:mant-dGDP [4]: 13400 M⁻¹ s⁻¹
AC50 of the dose-response activation of the GEF activity of pC3G (0.2 µM) on Rap1b:mant-dGDP [5]: 1.7 µM
kmax of the dose-response activation of the GEF activity of pC3G (0.2 µM) on Rap1b:mant-dGDP [5]: 0.0342 s^-1 µM^-1
Kd [11]: 2.3 µM

B5
binding result [12]: binds
